Bridge positions count the residues as written; N and C are the ends. Square brackets hold non-standard residues; d marks the D form. Primed or numbered codes have the meaning given here. Ends that are not written are not given here. Glu‑DTPA‑Gd″ = N-terminal chelate: Glu-DTPA-Gd (glutamic acid–DTPA gadolinium chelate); PEG(2O) = not defined here
Experiments:
[1] = target: T1, rat collagen, acid soluble, type I, rat tail (Upstate 08-115) (rat, UniProt P02454 152-1207; P02466 86-1125); experiment: dried collagen assay
T1 construct: tissue extract, gelled and dried in wells; also called dried rat collagen
T1 sequence (P02454 152-1207, chain 1 of 2): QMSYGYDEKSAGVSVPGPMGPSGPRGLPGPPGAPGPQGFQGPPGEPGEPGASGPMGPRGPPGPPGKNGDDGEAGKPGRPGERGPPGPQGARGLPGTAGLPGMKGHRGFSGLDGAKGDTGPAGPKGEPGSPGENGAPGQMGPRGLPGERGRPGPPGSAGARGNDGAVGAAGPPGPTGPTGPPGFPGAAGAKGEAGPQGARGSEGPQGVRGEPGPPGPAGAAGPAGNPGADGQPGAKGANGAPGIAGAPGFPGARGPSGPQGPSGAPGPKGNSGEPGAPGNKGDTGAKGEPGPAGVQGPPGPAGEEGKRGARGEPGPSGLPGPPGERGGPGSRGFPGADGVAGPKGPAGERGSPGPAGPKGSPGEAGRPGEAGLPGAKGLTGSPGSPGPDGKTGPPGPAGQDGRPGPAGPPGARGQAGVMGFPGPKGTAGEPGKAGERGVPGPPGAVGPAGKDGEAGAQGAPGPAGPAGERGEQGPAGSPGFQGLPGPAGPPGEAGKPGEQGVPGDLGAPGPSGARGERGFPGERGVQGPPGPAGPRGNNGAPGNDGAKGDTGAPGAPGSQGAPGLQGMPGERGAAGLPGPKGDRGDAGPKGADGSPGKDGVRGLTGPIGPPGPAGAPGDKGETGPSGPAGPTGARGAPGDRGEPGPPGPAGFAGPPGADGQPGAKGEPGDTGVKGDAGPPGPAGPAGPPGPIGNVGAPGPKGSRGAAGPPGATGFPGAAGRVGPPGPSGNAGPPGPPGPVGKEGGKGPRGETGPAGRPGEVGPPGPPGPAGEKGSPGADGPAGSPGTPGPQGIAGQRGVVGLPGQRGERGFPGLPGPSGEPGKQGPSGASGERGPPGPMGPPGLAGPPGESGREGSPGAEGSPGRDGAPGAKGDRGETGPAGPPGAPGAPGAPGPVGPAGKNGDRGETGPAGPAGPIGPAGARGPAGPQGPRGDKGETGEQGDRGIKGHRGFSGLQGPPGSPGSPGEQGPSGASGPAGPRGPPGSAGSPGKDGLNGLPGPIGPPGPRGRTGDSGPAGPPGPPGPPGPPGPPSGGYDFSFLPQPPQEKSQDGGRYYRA
T1 sequence (P02466 86-1125, chain 2 of 2): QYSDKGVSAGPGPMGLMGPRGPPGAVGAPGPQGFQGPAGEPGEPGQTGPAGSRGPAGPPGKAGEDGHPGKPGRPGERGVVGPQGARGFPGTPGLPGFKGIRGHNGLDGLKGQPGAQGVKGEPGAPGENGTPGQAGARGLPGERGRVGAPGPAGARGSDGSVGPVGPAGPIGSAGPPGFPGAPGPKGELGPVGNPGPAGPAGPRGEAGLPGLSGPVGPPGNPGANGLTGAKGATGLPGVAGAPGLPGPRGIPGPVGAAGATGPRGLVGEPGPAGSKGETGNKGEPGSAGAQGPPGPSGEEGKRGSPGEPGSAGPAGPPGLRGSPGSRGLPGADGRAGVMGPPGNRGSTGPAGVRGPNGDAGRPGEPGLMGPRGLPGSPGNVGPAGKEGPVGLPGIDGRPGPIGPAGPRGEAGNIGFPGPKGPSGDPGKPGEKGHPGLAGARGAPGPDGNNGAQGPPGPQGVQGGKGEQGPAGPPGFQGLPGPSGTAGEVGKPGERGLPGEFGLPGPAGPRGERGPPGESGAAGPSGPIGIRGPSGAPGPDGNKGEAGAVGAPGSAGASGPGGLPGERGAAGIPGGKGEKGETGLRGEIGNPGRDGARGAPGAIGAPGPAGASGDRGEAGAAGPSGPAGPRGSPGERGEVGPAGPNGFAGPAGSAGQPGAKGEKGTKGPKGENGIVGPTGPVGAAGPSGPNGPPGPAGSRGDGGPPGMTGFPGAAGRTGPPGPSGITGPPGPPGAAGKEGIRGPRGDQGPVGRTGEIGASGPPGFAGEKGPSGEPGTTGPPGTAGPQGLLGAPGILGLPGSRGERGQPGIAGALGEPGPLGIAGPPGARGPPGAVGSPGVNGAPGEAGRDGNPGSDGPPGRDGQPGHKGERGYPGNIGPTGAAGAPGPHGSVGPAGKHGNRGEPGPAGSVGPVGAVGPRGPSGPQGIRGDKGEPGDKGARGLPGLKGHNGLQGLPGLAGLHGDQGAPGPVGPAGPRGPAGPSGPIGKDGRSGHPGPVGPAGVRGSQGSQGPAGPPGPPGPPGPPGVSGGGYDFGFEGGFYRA
Experimental: (§1) An additional 90 μL is reserved in a HPLC glass vial as a measure of the total concentration.

[2] = target: T2, human collagen type I, acid soluble, extracted from placenta (Sigma C7774) (human, UniProt P02452 162-1218; P08123 80-1119); experiment: dried collagen assay
T2 construct: tissue extract, gelled and dried in wells; also called dried human collagen; h-Collagen
T2 sequence (P02452 162-1218 limits assumed, chain 1 of 2): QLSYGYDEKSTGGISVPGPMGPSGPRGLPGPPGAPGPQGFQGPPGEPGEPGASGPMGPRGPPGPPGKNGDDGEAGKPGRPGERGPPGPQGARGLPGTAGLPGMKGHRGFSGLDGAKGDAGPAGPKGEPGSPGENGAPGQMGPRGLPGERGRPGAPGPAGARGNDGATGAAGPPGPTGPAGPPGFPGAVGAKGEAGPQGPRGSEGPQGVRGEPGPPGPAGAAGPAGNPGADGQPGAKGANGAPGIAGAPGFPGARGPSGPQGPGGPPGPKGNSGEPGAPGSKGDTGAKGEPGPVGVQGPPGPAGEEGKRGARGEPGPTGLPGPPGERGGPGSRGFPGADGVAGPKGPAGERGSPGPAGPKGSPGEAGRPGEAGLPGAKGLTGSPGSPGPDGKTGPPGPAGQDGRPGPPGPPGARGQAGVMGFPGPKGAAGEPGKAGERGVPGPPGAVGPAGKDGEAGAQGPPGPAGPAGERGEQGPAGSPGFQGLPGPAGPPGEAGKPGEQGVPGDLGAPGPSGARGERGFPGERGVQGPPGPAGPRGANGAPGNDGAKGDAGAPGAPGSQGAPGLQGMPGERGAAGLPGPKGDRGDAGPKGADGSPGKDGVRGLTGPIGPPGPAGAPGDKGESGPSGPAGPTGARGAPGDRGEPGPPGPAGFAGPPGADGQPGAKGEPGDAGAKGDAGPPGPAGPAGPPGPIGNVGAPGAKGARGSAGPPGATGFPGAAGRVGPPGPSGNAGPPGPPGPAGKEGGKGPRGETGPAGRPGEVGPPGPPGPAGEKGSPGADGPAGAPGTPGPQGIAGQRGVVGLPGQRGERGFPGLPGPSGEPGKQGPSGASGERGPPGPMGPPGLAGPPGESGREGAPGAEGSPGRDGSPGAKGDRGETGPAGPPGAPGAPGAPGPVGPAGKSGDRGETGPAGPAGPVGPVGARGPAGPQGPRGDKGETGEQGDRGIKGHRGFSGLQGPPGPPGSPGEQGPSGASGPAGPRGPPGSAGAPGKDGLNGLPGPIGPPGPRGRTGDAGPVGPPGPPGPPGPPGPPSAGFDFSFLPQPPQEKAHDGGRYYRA
T2 sequence (P08123 80-1119 limits assumed, chain 2 of 2): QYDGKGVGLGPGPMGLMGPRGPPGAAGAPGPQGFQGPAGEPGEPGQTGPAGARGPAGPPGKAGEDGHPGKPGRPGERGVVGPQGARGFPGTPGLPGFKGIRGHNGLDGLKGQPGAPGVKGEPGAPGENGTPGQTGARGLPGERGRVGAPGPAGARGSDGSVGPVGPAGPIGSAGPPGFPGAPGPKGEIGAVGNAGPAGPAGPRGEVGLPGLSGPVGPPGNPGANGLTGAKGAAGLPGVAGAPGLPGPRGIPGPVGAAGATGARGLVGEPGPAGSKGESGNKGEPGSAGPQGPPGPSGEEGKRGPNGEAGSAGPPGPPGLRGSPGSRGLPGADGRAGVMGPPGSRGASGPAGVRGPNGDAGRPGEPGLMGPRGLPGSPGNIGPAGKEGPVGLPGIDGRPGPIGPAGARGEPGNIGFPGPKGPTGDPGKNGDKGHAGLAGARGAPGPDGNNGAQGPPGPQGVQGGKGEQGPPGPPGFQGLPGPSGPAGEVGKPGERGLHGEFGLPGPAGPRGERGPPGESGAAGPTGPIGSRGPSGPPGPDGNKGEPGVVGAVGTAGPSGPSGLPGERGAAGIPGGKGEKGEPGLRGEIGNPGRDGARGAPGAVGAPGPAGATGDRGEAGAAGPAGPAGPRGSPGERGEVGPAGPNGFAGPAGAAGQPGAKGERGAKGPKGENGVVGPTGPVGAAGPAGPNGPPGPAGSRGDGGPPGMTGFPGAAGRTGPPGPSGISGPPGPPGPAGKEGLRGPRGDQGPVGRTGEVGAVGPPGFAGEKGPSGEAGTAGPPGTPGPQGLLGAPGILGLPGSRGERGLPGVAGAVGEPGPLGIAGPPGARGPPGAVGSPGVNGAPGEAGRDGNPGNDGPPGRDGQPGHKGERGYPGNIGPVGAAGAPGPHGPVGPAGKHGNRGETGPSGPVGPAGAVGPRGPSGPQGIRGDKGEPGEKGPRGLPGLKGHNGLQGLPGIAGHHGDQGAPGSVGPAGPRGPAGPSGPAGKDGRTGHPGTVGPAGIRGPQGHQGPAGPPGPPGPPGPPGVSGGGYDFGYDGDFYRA
Experimental: as §1

[3] = target: T2, human collagen type I, acid soluble, …; experiment: % binding to collagen I

B1: SEQ ID NO 157 (peptide)
peptide: YHACY[dQ]AGCWIW
modifications: disulfide 4-9 (inferred); not fully specified (C-terminus); printed as YHACYqAGCWIW
notes: cyclic, disulfide; also called YHACYqAGCWIW
[1]
  % bound: 35%
[2]
  % bound: 37%

## {Glu‑DTPA‑Gd″-PEG(2O)}-GQWTCSGDEYTWHCNY[dE]-NH2 (disulfide 5-14 (inferred); reading uncertain, linker -PEG(2O)-G- on the N-terminus) [Compound ID 1026]
[3]
  % bound: 28%

B2: SEQ ID NO 153 (peptide)
peptide: Y[dH]ACYQAGCWIW
modifications: disulfide 4-9 (inferred); not fully specified (C-terminus); printed as YhACYQAGCWIW
notes: cyclic, disulfide
[1]
  % bound: 0%
[2]
  % bound: 0%

B3: SEQ ID NO 156 (peptide)
peptide: YHAC[dY]QAGCWIW
modifications: disulfide 4-9 (inferred); not fully specified (C-terminus); printed as YHACyQAGCWIW
notes: cyclic, disulfide; also called YHACyQAGCWIW
[1]
  % bound: 48%
[2]
  % bound: 38%

B4: SEQ ID NO 155 (peptide)
peptide: YHA[dC]YQAGCWIW
modifications: disulfide 4-9 (inferred); not fully specified (C-terminus); printed as YHAcYQAGCWIW
notes: cyclic, disulfide
[1]
  % bound: 11%
[2]
  % bound: 15%

B5: SEQ ID NO 154 (peptide)
peptide: YH[dA]CYQAGCWIW
modifications: disulfide 4-9 (inferred); not fully specified (C-terminus); printed as YHaCYQAGCWIW
notes: cyclic, disulfide
[1]
  % bound: 21%
[2]
  % bound: 24%

B6: SEQ ID NO 158 (peptide)
peptide: YHACYQ[dA]GCWIW
modifications: disulfide 4-9 (inferred); not fully specified (C-terminus); printed as YHACYQaGCWIW
notes: cyclic, disulfide; also called YHACYQaGCWIW
[1]
  % bound: 66%
[2]
  % bound: 56%

B7: SEQ ID NO 162 (peptide)
peptide: YHACYQAGCWI[dW]
modifications: disulfide 4-9 (inferred); not fully specified (C-terminus); printed as YHACYQAGCWIw
notes: cyclic, disulfide
[1]
  % bound: 14%
[2]
  % bound: 18%

B8: SEQ ID NO 161 (peptide)
peptide: YHACYQAGCW[dI]W
modifications: disulfide 4-9 (inferred); not fully specified (C-terminus); printed as YHACYQAGCWiW
notes: cyclic, disulfide
[1]
  % bound: 10%
[2]
  % bound: 8%

## DWTCSGNHLTWYCNYG (disulfide 4-13 (inferred), cyclic, disulfide) [SEQ ID NO 118]
[1]
  % bound: 67%
[2]
  % bound: 68%

## DWTCSGDHLTWHCNYG (disulfide 4-13 (inferred), cyclic, disulfide) [SEQ ID NO 116]
[1]
  % bound: 35%
[2]
  % bound: 58%

## DWTCSGDHLTWKCNYG (disulfide 4-13 (inferred), cyclic, disulfide) [SEQ ID NO 117]
[1]
  % bound: 24%
[2]
  % bound: 38%

## GQWTCSGDEY[dA]WHCNA[dE] (disulfide 5-14 (inferred), cyclic, disulfide) [SEQ ID NO 124]
[1]
  % bound: 17%
[2]
  % bound: 24%

## DWTCS[dL]DEYTWHCNYE (disulfide 4-13 (inferred), cyclic, disulfide) [SEQ ID NO 183]
[1]
  % bound: 63%
[2]
  % bound: 73%

## GAWTCSGDEYTWHCNYE (disulfide 5-14 (inferred), cyclic, disulfide) [SEQ ID NO 129]
[1]
  % bound: 84%
[2]
  % bound: 87%

## DWTCS[dA]DEYTWHCNYE (disulfide 4-13 (inferred), cyclic, disulfide) [SEQ ID NO 179]
[1]
  % bound: 75%
[2]
  % bound: 81%

B9: SEQ ID NO 177 (peptide)
peptide: QWTCSGDEYTWHCN[dY]E
modifications: disulfide 4-13 (inferred); not fully specified (N-terminus); printed as QWTCSGDEYTWHCNyE
notes: cyclic, disulfide
[1]
  % bound: 27%
[2]
  % bound: 30%

## GQWACSGDEYTWHCNYE (disulfide 5-14 (inferred), cyclic, disulfide) [SEQ ID NO 140]
[1]
  % bound: 77%
[2]
  % bound: 84%

## GQWTCSGDAYTWHCAYE (disulfide 5-14 (inferred), cyclic, disulfide) [SEQ ID NO 128]
[1]
  % bound: 72%
[2]
  % bound: 80%

B10: SEQ ID NO 164 (peptide)
peptide: [dQ]WTCSGDEYTWHCNYE
modifications: disulfide 4-13 (inferred); not fully specified (N-terminus, C-terminus); printed as qWTCSGDEYTWHCNYE
notes: cyclic, disulfide
[1]
  % bound: 31%
[2]
  % bound: 46%

## GQWTCSGDEYTWHCAYE (disulfide 5-14 (inferred); not fully specified (C-terminus), cyclic, disulfide) [SEQ ID NO 149]
[1]
  % bound: 82%
[2]
  % bound: 82%

## DWTCS[dR]DEYTWHCNYE (disulfide 4-13 (inferred), cyclic, disulfide) [SEQ ID NO 181]
[1]
  % bound: 86%
[2]
  % bound: 87%

B11: SEQ ID NO 178 (peptide)
peptide: QWTCSGDEYTWHCNY[dE]
modifications: disulfide 4-13 (inferred); not fully specified (N-terminus); printed as QWTCSGDEYTWHCNYe
notes: cyclic, disulfide
[1]
  % bound: 87%
[2]
  % bound: 90%

## GQWTCSGDEYSWHCNY[dE] (disulfide 5-14 (inferred), cyclic, disulfide) [SEQ ID NO 125]
[1]
  % bound: 86%
[2]
  % bound: 85%

B12: SEQ ID NO 170 (peptide)
peptide: QWTCSGD[dE]YTWHCNYE
modifications: disulfide 4-13 (inferred); not fully specified (N-terminus); printed as QWTCSGDeYTWHCNYE
notes: cyclic, disulfide
[1]
  % bound: 35%
[2]
  % bound: 49%

B13: SEQ ID NO 172 (peptide)
peptide: QWTCSGDEY[dT]WHCNYE
modifications: disulfide 4-13 (inferred); not fully specified (N-terminus); printed as QWTCSGDEYtWHCNYE
notes: cyclic, disulfide
[1]
  % bound: 8%
[2]
  % bound: 9%

## DWTCS[dS]DEYTWHCNYE (disulfide 4-13 (inferred), cyclic, disulfide) [SEQ ID NO 180]
[1]
  % bound: 72%
[2]
  % bound: 81%

## GQWTCSGDEYTWHCNY (disulfide 5-14 (inferred), cyclic, disulfide) [SEQ ID NO 123]
[1]
  % bound: 72%
[2]
  % bound: 59%

B14: SEQ ID NO 160 (peptide)
peptide: YHACYQAGC[dW]IW
modifications: disulfide 4-9 (inferred); not fully specified (C-terminus); printed as YHACYQAGCwIW
notes: cyclic, disulfide
[1]
  % bound: 12%
[2]
  % bound: 20%

## QWTCSGDEYAWHCNYE (disulfide 4-13 (inferred); not fully specified (N-terminus, C-terminus), cyclic, disulfide) [SEQ ID NO 146]
[1]
  % bound: 77%
[2]
  % bound: 82%

## DWTCS[dY]DEYTWHCNYE (disulfide 4-13 (inferred), cyclic, disulfide) [SEQ ID NO 182]
[1]
  % bound: 86%
[2]
  % bound: 89%

## GQWTCSGDEYTWHCNYA (disulfide 5-14 (inferred); not fully specified (C-terminus), cyclic, disulfide) [SEQ ID NO 151]
[1]
  % bound: 81%
[2]
  % bound: 87%

## GQWTCSGDEYTWHCNAE (disulfide 5-14 (inferred); not fully specified (C-terminus), cyclic, disulfide) [SEQ ID NO 150]
[1]
  % bound: 9%
[2]
  % bound: 16%

## GQWTCSGDEYTWACNYE (disulfide 5-14 (inferred); not fully specified (C-terminus), cyclic, disulfide) [SEQ ID NO 148]
[1]
  % bound: 73%
[2]
  % bound: 66%

Reference: patent US20080044360A1 (COLLAGEN MEDICAL, published 2008)
